Laboratory results as given in paper PMC13022675.

Biological target: GFP-tagged MR1A (MR1-GFP) expressed in clonal cell line D6 (D6ins and D6del mutants) (UniProt Q95460)
UniProt Q95460, sequence (Q95460 23-341, stated change not applied): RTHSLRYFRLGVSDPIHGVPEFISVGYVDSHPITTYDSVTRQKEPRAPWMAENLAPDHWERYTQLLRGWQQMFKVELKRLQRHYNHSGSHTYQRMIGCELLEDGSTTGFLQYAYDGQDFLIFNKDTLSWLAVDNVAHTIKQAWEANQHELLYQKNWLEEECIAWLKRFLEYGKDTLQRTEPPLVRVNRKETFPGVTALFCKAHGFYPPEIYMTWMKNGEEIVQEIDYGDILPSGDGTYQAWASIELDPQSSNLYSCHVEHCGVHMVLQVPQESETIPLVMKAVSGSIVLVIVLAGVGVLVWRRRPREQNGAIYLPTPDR

- fully folded MR1 (antibody clone 26.5) remaining at the cell surface 6 h after brefeldin A, flow cytometry: 20%
Substance: β2-microglobulin (from UniProt P61769 21-119) (natural protein)
